Reference: the nanobody polyreactivity screen of Harvey et al. (2022)

Assay: yeast display, Sf9 membrane polyspecificity reagent, FACS + sequencing; frameworks hold sequencing errors
Summary of the method: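 Sorting gates, low and high (top ~1%), were placed on anti-HA fluorescence to track expression and on streptavidin fluorescence to track reagent binding. A clone's polyreactivity label is taken from the gate it came out of. The reagent was 10% biotinylated, detergent-solubilized Sf9 membrane, applied for 1 hour at 4 °C to galactose-induced yeast display cells.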

Row | Sequence | polyreactivity (PSR sort gate)
1 | QVQLVESGGGLVQAGGSHRLSCAASGSTFDYYAMGWYRQAPGKERELVAAITFSGDRTYYADSVKGRFTISRDNAKNTVYLQMNSLKPEDTAVYYCAARWFVYRYIFDYWGQGTQVTVSS | high polyreactivity
2 | QVQLVESGGGLVQAGGSHRLSCAASGSTFKDYAMVWYRQAPGKERELVASITESGGSTYYADSVKGRFTISRDNAKNTVYLQMNSLNPEDTAVYYCATDLIPEGSGYDYWGQGTQVTVSS | low polyreactivity
3 | QVQLVESGGGLVQAGGSHRLSCAASGSTFSYNTMGWYRQAPGKERELVAAIRSGGSTYYADSVKGRFTISRDNAKNTVYLQMNSLKPEDTAVYYCATDKFHRKVLHWYDYWGQGTQVTVSS | low polyreactivity
4 | QVQLVESGGGLVQAGGSHRLSCAASGSTFTGYAMACYRQAPGKEREFVAGNTGSGGSTYYADSVKGRFTISRDIAKNSVYFQMISLKPEDTAVYYCAASFWYHYVWLDYYWGQGTQVTVSS | low polyreactivity
5 | QVQLVESGGGLVQAGGSHRLSCAATGNTFHTNAIGWYRQAPGKERELVAAITGGGSTYYADSVKGRFTISRDNAKNTVYLQMNSLKPEDTAVYYCNTDVPYGLDVSDTIDYYYWGQGTQVTVSS | low polyreactivity
6 | QVQLVESGGGLVQAGGSHRLSCAAYGSIFATNAMGWYRQAPGKERELVASISYSVSRTYYADSVKGRFTISRDNSMNTVYLQMNSMKPEDTAFYYSAVRQVNWFGIGYEDDYWGQGTQVTVSS | low polyreactivity
7 | QVQLVESGGGLVQAGGSHRLSCADSGSIFWYNAMGWYRQAPGKEREFVATITWSGDSTYYADSVKGRFTISRDNAKNTVYLQMNSLKPEDTAVYYCAALLDYSVADLYSHHVSRYYYWGQGTQVTVSS | low polyreactivity
8 | QVQLVESGGGLVQAGGSHRLSCDASGRTFWVNAMGWYRQAPGKERELVATIRGSGVSTYYADSVNGRFTISRDNAKNTVYLKMNSLKPVDTAVYYCATTYHRVGLQYTFDYLGQGTQVTVSS | low polyreactivity
9 | QVQLVESGGGLVQAGGSHRLSCDASGRTFYRNAMGWYRQAPGKERELVAGISSRGGSTYYADSVKGRFTISRDNAKNTVYLQMISLKPEDTAVYYCAATSSPYSIYNSWGQGTQVTVSS | high polyreactivity
10 | QVQLVESGGGLVQAGGSHRLSCSASGITFYYYAMGWYRQAPGKERELVAAISRSGGRTYYADSVKGRFTISRDNAKNTVYLQMNSLKPEDTAVYYCAAVRYQGGDSSIEYDYWGQGTQVTVSW | high polyreactivity
11 | QVQLVESGGGLVQAGGSHRLTCAASGSTFRRYARGWYRQAPGKERELVATISSGRRTNYADSVKGRFTISRDNAKNTVYLQMNSLKPEDTAVYYCAAAYWSSRADTVIKRYYWGQGTQVTVSS | high polyreactivity
12 | QVQLVESGGGLVQAGGSIRISCAASGITFIDYTMGWYRQAPGKERELVAVITKTGYRTYYADSVKGRFTISRDNANNSDYLQMNSLNRSDSAVYYCNALYYIHYYEGYGYWGQGTQVTVSS | high polyreactivity
13 | QVQLVESGGGLVQAGGSIRLRCAASGGIFSVYAMGWYIQAPGKERELVASISLSGGSTSYADSVKGRFTISRDNAKNTVYLQMNSLKPEDTAVYYCNTDFGQAHTLSWYEDMDYWGQGTQVTVSS | low polyreactivity
14 | QVQLVESGGGLVQAGGSIRLSCAASGFTFDAYAMGWYRQAPGKESELVAAITTSGGNTNYADSVKGRFTISRDNAKNTVYLQMNSLKPEDTAVYYCASDAAVEYGKISYDYWGQGTQVTVSS | low polyreactivity
15 | QVQLVESGGGLVQAGGSIRLSCAASGFTFRRNAMGWSRQAPGKERELVAAITSSGASTYYADSVKGRFTISRDNAKNTVYLQMNSLKPEDTAVYYCAARQTYYKYGYWGQGTQVTVSS | high polyreactivity
16 | QVQLVESGGGLVQAGGSIRLSCAASGIIFYYYAMGWYRQAPGKERELVAGISYSGGSTYADSVKGRFTISRDNAKNTVYLQMNSLKPEDTAVYYCAADYDYGGHWYDYWGQGTQVTVSS | low polyreactivity
17 | QVQLVESGGGLVQAGGSIRLSCAASGRIFARYAMGWYRQAPGTERELVASITVSGDNTYYADSVKGRFTISRDNAKKTVYLQMNSLKPEDTAVYYCAVRAVVLFGFFEYDYWGQGTQVTVSS | low polyreactivity
18 | QVQLVESGGGLVQAGGSIRLSCAASGRIFGAYAIGWYRQAPGKERELVADIRTTGSTNYADSVKGRFTISRDNAKNTVYLQMNSLKPEDTAVYYCAARWRSRRFGSGFEYWGQGTQVTVSS | high polyreactivity
19 | QVQLVESGGGLVQAGGSIRLSCAASGRTFARNAMGWYRKAPGKERELVAAISSSGGSTYYADSVKGRFTISRDNAKNTVYLQMNSLKPEDTAVYYCARYSSFTYDYWGQGTQVTVSS | high polyreactivity
20 | QVQLVESGGGLVQAGGSIRLSCAASGRTFIYNVMGWYRQAPGKERELVAAISSGGNTNYADSVKGRFTISRDNAKNTVYLQMNSLKPEDPAVYYCNARWPLGVSRGGMGYWGQGTQVTVSS | high polyreactivity
21 | QVQLVESGGGLVQAGGSIRLSCAASGRTFNYYAMGWYRQAPGKERELVAAIDSDGNTYYADSVKGRFTISRDNAKNTVYLQMNSLKPDDTAVYYCAADTHVNPNYDYWGQGTQVTVSS | low polyreactivity
22 | QVQLVESGGGLVQAGGSIRLSCAASGSIFYHNAMGWYRPAPGKERELVAAITWSGSTTYYADSVKGRFTISRDNGKNTVYLQMNSLKPEDTAVYYCNAGNRHGHYDYWGQGTQVTVSS | low polyreactivity

Row | Sequence | polyreactivity (PSR sort gate)
23 | QVQLVESGGGLVQAGGSIRLSCAASGSIYKYNAMGWYRQAPGKERELVAAISSGGSTNYADSVKGRFTISRDNAKNTVYLQMNSLKPEDTAVYYCAKDRRRWYYTRDYWGQGTQVTVSS | low polyreactivity
24 | QVQLVESGGGLVQAGGSIRLSCAASGSIYPFYSMGWYRQATGKEMELVAAISDSGGDTYYADSVKGRFTISRDNAKNTVYLQMNSLKPEDTAVYYCAADWFYNSFNYWGQGTQVTVSS | low polyreactivity
25 | QVQLVESGGGLVQAGGSIRLSCAASGSTFPGNAMGWYRQAPGKERELVASISGGGDSTYYADSVKGRFTISRDNAKNTVYLQMNSLKPEDTAVYYCAADTQGSVRPGYDYWGQGTQVTVSS | low polyreactivity
26 | QVQLVESGGGLVQAGGSIRLSCSASGSTFNIYAMGWYRKAPGKERELVAAISGNGDRTYYADSVKGRFTISRDNAKNTVYLQMTSLKPEDTAVYYCAAKYYGWGQGTQVTVSS | high polyreactivity
27 | QVQLVESGGGLVQAGGSIRLSSAASGLIFLGDPMGWYRQAPGKERELVASIRTGRSTSYADSVKGRFTFSRDNAKYTVYLQMNSLKPEDTAVYYCAADRGRPNLPGDYWGQGSQVTVSS | low polyreactivity
28 | QVQLVESGGGLVQAGGSIRLTCAASGLIFLVYPMGWYRPAPGKERELVASIRTGRSTSYADSVKGRFTISRDNAKYTVYLQMNSLKPEDTAVYYCAADRGRPNLPGDYWGQGTQVTVSS | low polyreactivity
29 | QVQLVESGGGLVQAGGSISLSCAASGRIFPTNDMGWYRQAPGKERELVASIDSVGSTKYADSVKGRFTISRDNAKNTVYLQMNSLKPEDTAVYYRALQVLNYDYWGQGTQVTVSS | low polyreactivity
30 | QVQLVESGGGLVQAGGSLCLSCAASGITFLFYAMGWYRQAPGKERELVAAITYSGGSTYYADSVKGRFTISRDNAKNTVYLQMNSLKPEDTAVYYCAADVWWSYYRYDYWGQGTQVTVSS | low polyreactivity
31 | QVQLVESGGGLVQAGGSLCLSCAASGSTLRRYAMGWYRQAPGKERELVAAITYRSGSTYYADSVKGRFTISRDNAKNTVYLQMNSLKPEDTAVYYCAKVGYVSKYWFAGDYWGQGTQVTVSS | high polyreactivity
32 | QVQLVESGGGLVQAGGSLGLSCAASGFIFVRYAMGWYRQATGKERELVGAITSTGSTYYADSVKGRFTISRDKAKNTVYLQMNSLKPEDTAVYYCAAVSRTSITFGYYAEYDYWGQGTQVTVSS | low polyreactivity
33 | QVQLVESGGGLVQAGGSLGLSCAASGRMFGYYTLGWYRQAPGKERELVAAITSSGGRTYYADSVKGRFTISRDYAKNTVYLQMNSLKPEDTAVYYCAADVEWTSRGSYYRYYYWGQGTQVTVSS | low polyreactivity
34 | QVQLVESGGGLVQAGGSLGLSCAASGRTFGFYAMGWYRQATGKQRELVAAITSTGGSTYYADSVKGRFTISRDNAKNTVYLQMNSLKPEDNAVYYCAADSGTKRYYYWGQGTPVTVSS | high polyreactivity
35 | QVQLVESGGGLVQAGGSLGLSCAASGSTFHLYAMGWYRQAPGKEREFVAAIRGRGGNTYADSVKGRFTISRDNAKNTVSLQMNSLKPEDTAVYYCAAPLLRVLRSPYSYNYWGQGTQVTVSS | low polyreactivity
36 | QVQLVESGGGLVQAGGSLGLSCAATGSTIPYNAMGWYRQAPGKERELVAAINSAGGTNYADSVKGRFTISRDNAKNTVYLQMNSRKPEDTAVYYCAADGSGYYDWYYYWGQGTQVTVSS | low polyreactivity
37 | QVQLVESGGGLVQAGGSLGLTCAASGFILAQNAMGWYRQAPGKERELVAAISRRGGRTSYADSVKGRFTISRDYAKNTVYLQMNSLKPEDTAVYYCAALPPRASSDAGGWYVAEDYWGQGTQVTVSS | high polyreactivity
38 | QVQLVESGGGLVQAGGSLLISCAASGRTLDFNVMGWYRQAPGKERELVAAITWSGGSTYYADSVKGRFTISRDNAKNTVYLQMNSLKPEDTAVYYCAKDRWYWARRYDYWGQGTQVTVSS | high polyreactivity
39 | QVQLVESGGGLVQAGGSLLLICAASGLTFYAKVMGWYRQAPGKERELVASISRSGGRTYYADSVKGSFTISRDNAKNTVYLQMNSLKPEDTAVYYSAAADQVGQEDDYWGQGSQVTVSS | low polyreactivity
40 | QVQLVESGGGLVQAGGSLLLICAASGSIFYFYTMGWYRQAPGKERELVASITYSGGRTYYADSVKWSFTMSRDNAKHTVYLQMNSLKPEDPPVDYCAVRGYRRYWGQGTQVTVSS | high polyreactivity
41 | QVQLVESGGGLVQAGGSLLLSCAASGFNFTYYTMGWYRQAPGKERELVAAISYSGGSTYYAESVKGRFTISRDNAKNSVYLQMNSLKPEDTAVYYCAVRVSDKYISKRFEYWGQGTEVTVSS | high polyreactivity
42 | QVQLVESGGGLVQAGGSLLLSCAASGITFGDNAMGWYRQAPGKERELVAAISSGGSTDYADSVNGRFTISRDNAKNTVYLQMNSLKPEDTAVYYCAVDWVSVPEYDYWGQGTQVTVSS | low polyreactivity
43 | QVQLVESGGGLVQAGGSLLLSCAASGLIFSWNAMGWYRQAPGKERELVASISYSGGRTYYADSVKGRFTISRDNAKNTVYLQMNSLKPEDTAVYYCAADTNATTDPEMDYWGQGTQVTVSS | low polyreactivity
